Experimental data as given in US20240392262A1, “TRANSPOSASE AND USES THEREOF” (Poseida Therapeutics, Inc., published 2024).
Substitutions are numbered along the chain they refer to.

T1: PAH4 Left TAL-PBx (synthetic construct)
T1 chain: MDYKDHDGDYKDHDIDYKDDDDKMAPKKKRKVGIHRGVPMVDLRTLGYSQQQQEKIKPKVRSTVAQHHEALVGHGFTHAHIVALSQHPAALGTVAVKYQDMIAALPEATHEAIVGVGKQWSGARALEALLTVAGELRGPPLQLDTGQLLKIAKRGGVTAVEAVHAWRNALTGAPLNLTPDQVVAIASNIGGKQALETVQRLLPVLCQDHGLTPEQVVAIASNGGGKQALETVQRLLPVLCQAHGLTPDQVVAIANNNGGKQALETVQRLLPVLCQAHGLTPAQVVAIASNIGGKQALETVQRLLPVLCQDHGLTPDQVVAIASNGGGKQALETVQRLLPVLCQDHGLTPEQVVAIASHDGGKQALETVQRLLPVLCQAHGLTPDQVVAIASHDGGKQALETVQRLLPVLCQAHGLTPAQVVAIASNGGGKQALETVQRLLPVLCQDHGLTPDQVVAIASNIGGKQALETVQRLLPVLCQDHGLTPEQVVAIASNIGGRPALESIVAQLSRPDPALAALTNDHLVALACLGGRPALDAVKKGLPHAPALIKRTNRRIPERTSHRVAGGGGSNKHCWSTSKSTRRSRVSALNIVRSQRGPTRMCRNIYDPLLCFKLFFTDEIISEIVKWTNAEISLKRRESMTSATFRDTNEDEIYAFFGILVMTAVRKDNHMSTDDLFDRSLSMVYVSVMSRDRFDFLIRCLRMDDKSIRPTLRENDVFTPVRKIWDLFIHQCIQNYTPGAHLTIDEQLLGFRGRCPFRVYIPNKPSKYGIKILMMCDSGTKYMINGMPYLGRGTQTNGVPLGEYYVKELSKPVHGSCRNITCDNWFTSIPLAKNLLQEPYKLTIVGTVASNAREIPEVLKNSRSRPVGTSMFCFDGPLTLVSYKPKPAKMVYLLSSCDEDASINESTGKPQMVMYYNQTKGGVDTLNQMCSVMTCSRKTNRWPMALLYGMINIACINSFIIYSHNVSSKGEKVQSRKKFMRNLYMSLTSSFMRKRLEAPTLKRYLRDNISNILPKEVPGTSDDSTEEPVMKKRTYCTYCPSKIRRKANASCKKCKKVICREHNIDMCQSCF

T2: PAH4 Right TAL-PBx (synthetic construct)
T2 chain: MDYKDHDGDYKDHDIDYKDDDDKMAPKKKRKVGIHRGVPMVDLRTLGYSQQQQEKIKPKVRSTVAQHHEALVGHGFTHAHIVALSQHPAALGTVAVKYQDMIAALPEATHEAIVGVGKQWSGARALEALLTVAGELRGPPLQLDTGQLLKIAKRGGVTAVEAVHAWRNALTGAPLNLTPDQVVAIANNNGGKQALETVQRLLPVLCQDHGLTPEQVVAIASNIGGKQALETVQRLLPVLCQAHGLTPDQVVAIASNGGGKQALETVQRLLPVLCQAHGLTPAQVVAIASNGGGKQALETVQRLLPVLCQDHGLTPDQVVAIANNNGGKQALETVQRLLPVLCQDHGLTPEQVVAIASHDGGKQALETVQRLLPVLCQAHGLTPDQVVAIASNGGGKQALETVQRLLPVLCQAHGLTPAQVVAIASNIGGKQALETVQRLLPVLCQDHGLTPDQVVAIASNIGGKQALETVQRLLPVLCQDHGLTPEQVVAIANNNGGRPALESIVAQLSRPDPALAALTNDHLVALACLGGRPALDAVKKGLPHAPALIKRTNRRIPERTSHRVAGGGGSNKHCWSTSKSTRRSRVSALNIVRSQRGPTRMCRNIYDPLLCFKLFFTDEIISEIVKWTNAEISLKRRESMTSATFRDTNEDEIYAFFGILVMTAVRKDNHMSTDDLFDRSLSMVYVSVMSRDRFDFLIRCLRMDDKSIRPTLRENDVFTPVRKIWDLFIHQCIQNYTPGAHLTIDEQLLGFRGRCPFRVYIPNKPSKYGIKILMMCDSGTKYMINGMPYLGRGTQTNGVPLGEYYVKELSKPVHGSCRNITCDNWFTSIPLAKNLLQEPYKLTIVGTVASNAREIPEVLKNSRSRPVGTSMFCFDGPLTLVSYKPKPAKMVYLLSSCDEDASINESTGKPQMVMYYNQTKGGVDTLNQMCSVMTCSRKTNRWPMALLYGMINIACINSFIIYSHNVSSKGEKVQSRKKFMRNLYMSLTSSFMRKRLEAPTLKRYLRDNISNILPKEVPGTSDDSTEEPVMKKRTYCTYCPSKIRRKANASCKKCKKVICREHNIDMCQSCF

T3: PAH3 Left TAL-PBx (synthetic construct)
T3 chain: T2 chain with N222H, I223D, N323S, N324H, N325D, H358N, D359I, S459N, I461N

T4: PAH3 Right TAL-PBx (synthetic construct)
T4 chain: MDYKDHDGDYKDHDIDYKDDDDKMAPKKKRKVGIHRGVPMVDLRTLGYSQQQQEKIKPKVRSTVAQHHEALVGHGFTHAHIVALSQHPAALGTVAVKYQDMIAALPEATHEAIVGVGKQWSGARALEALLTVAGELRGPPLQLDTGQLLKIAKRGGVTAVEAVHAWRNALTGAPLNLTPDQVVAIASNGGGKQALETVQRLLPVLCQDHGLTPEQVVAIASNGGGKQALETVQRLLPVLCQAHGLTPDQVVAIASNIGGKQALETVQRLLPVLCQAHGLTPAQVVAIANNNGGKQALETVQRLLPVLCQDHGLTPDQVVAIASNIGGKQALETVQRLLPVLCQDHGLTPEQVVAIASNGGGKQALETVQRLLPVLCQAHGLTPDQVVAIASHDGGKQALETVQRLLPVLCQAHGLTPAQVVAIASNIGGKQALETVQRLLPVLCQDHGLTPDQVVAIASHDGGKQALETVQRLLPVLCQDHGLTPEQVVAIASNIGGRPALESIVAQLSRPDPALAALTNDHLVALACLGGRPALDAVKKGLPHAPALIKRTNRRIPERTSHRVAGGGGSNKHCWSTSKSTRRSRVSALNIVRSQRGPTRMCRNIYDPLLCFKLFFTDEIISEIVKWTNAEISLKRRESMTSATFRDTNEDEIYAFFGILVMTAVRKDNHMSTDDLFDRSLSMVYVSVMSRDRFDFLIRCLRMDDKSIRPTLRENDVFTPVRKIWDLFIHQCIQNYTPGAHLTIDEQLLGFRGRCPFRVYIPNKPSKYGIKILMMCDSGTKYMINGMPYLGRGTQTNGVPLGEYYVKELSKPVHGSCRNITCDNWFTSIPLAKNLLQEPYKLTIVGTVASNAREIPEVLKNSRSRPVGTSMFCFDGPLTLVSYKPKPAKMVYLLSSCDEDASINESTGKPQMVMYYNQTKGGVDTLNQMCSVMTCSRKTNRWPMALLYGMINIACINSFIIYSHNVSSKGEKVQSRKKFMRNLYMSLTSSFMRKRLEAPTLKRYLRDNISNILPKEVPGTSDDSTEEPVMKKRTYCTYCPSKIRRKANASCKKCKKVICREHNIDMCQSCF

B1: PAH4 target (dsDNA)
DNA 1: TATGATCCTAATCAGGCTTGTAAATTAACTTTTGAGGCTCTCTTAGCAATCA
DNA 2: TGATTGCTAAGAGAGCCTCAAAAGTTAATTTACAAGCCTGATTAGGATCATA
B2: PAH3 target (dsDNA)
DNA 1: TGCTTCATAGGGTAGTTCTAAAGATTAAATCACTTAATGCATGTGATCTAAA
DNA 2: TTTAGATCACATGCATTAAGTGATTTAATCTTTAGAACTACCCTATGAAGCA

What was measured:
Settings in all cases: tags: 3xFlag, SV40 NLS
[1] = biological target: T1, PAH4 Left TAL-PBx; assay: cell_activity; left only
[2] = biological target: T2, PAH4 Right TAL-PBx; assay: cell_activity; right only
[3] = biological target: T3, PAH3 Left TAL-PBx; assay: cell_activity; left only
[4] = biological target: T4, PAH3 Right TAL-PBx; assay: cell_activity; right only

Row | Binder | activity [1] [% GFP+] | activity [2] [% GFP+] | activity [3] [% GFP+] | activity [4] [% GFP+]
1 | B1 | 3.6 | 2.9 | – | –
2 | B2 | – | – | 6.8 | 5.7
